Reference: patent US20160113911A1, “METHODS AND COMPOSITIONS FOR THE TREATMENT OF CANCER” (THE GENERAL HOSPITAL CORPORATION, priority 2013, published 2016)

B1: KDM4A WT: wild type KDM4A (major allele E482) (protein)
chain: MASESETLNPSARIMTFYPTMEEFRNFSRYIAYIESQGAHRAGLAKVVPPKEWKPRASYDDIDDLVIPAPIQQLVTGQSGLFTQYNIQKKAMTVREFRKIANSDKYCTPRYSEFEELERKYWKNLTFNPPIYGADVNGTLYEKHVDEWNIGRLRTILDLVEKESGITIEGVNTPYLYFGMWKTSFAWHTEDMDLYSINYLHFGEPKSWYSVPPEHGKRLERLAKGFFPGSAQSCEAFLRHKMTLISPLMLKKYGIPFDKVTQEAGEFMITFPYGYHAGFNHGFNCAESTNFATRRWIEYGKQAVLCSCRKDMVKISMDVFVRKFQPERYKLWKAGKDNTVIDHTLPTPEAAEFLKESELPPRAGNEEECPEEDMEGVEDGEEGDLKTSLAKHRIGTKRHRVCLEIPQEVSQSELFPKEDLSSEQYEMTECPAALAPVRPTHSSVRQVEDGLTFPDYSDSTEVKFEELKNVKLEEEDEEEEQEAAALDLSVNPASVGGRLVFSGSKKKSSSSLGSGSSRDSISSDSETSEPLSCRAQGQTGVLTVHSYAKGDGRVTVGEPCTRKKGSAARSFSERELAEVADEYMFSLEENKKSKGRRQPLSKLPRHHPLVLQECVSDDETSEQLTPEEEAEETEAWAKPLSQLWQNRPPNFEAEKEFNETMAQQAPHCAVCMIFQTYHQVEFGGFNQNCGNASDLAPQKQRTKPLIPEMCFTSTGCSTDINLSTPYLEEDGTSILVSCKKCSVRVHASCYGVPPAKASEDWMCSRCSANALEEDCCLCSLRGGALQRANDDRWVHVSCAVAILEARFVNIAERSPVDVSKIPLPRFKLKCIFCKKRRKRTAGCCVQCSHGRCPTAFHVSCAQAAGVMMQPDDWPFVVFITCFRHKIPNLERAKGALQSITAGQKVISKHKNGRFYQCEVVRLTTETFYEVNFDDGSFSDNLYPEDIVSQDCLQFGPPAEGEVVQVRWTDGQVYGAKFVASHPIQMYQVEFEDGSQLVVKRDDVYTLDEELPKRVKSRLSVASDMRFNEIFTEKEVKQEKKRQRVINSRYREDYIEPALYRAIME
modifications: left off: large carriers
B2: H188A: catalytic mutant of KDM4A (protein, UniProt O75164 2-1064, looked up, variant H188A)
Lysine-specific demethylase 4A: ASESETLNPSARIMTFYPTMEEFRNFSRYIAYIESQGAHRAGLAKVVPPKEWKPRASYDDIDDLVIPAPIQQLVTGQSGLFTQYNIQKKAMTVREFRKIANSDKYCTPRYSEFEELERKYWKNLTFNPPIYGADVNGTLYEKHVDEWNIGRLRTILDLVEKESGITIEGVNTPYLYFGMWKTSFAWATEDMDLYSINYLHFGEPKSWYSVPPEHGKRLERLAKGFFPGSAQSCEAFLRHKMTLISPLMLKKYGIPFDKVTQEAGEFMITFPYGYHAGFNHGFNCAESTNFATRRWIEYGKQAVLCSCRKDMVKISMDVFVRKFQPERYKLWKAGKDNTVIDHTLPTPEAAEFLKESELPPRAGNEEECPEEDMEGVEDGEEGDLKTSLAKHRIGTKRHRVCLEIPQEVSQSELFPKEDLSSEQYEMTECPAALAPVRPTHSSVRQVEDGLTFPDYSDSTEVKFEELKNVKLEEEDEEEEQAAAALDLSVNPASVGGRLVFSGSKKKSSSSLGSGSSRDSISSDSETSEPLSCRAQGQTGVLTVHSYAKGDGRVTVGEPCTRKKGSAARSFSERELAEVADEYMFSLEENKKSKGRRQPLSKLPRHHPLVLQECVSDDETSEQLTPEEEAEETEAWAKPLSQLWQNRPPNFEAEKEFNETMAQQAPHCAVCMIFQTYHQVEFGGFNQNCGNASDLAPQKQRTKPLIPEMCFTSTGCSTDINLSTPYLEEDGTSILVSCKKCSVRVHASCYGVPPAKASEDWMCSRCSANALEEDCCLCSLRGGALQRANDDRWVHVSCAVAILEARFVNIAERSPVDVSKIPLPRFKLKCIFCKKRRKRTAGCCVQCSHGRCPTAFHVSCAQAAGVMMQPDDWPFVVFITCFRHKIPNLERAKGALQSITAGQKVISKHKNGRFYQCEVVRLTTETFYEVNFDDGSFSDNLYPEDIVSQDCLQFGPPAEGEVVQVRWTDGQVYGAKFVASHPIQMYQVEFEDGSQLVVKRDDVYTLDEELPKRVKSRLSVASDMRFNEIFTEKEVKQEKKRQRVINSRYREDYIEPALYRAIME
B3: 2A-R1025C*: KDM4A mutation (protein, UniProt O75164 2-1064, looked up, variant R1025C)
Lysine-specific demethylase 4A: ASESETLNPSARIMTFYPTMEEFRNFSRYIAYIESQGAHRAGLAKVVPPKEWKPRASYDDIDDLVIPAPIQQLVTGQSGLFTQYNIQKKAMTVREFRKIANSDKYCTPRYSEFEELERKYWKNLTFNPPIYGADVNGTLYEKHVDEWNIGRLRTILDLVEKESGITIEGVNTPYLYFGMWKTSFAWHTEDMDLYSINYLHFGEPKSWYSVPPEHGKRLERLAKGFFPGSAQSCEAFLRHKMTLISPLMLKKYGIPFDKVTQEAGEFMITFPYGYHAGFNHGFNCAESTNFATRRWIEYGKQAVLCSCRKDMVKISMDVFVRKFQPERYKLWKAGKDNTVIDHTLPTPEAAEFLKESELPPRAGNEEECPEEDMEGVEDGEEGDLKTSLAKHRIGTKRHRVCLEIPQEVSQSELFPKEDLSSEQYEMTECPAALAPVRPTHSSVRQVEDGLTFPDYSDSTEVKFEELKNVKLEEEDEEEEQAAAALDLSVNPASVGGRLVFSGSKKKSSSSLGSGSSRDSISSDSETSEPLSCRAQGQTGVLTVHSYAKGDGRVTVGEPCTRKKGSAARSFSERELAEVADEYMFSLEENKKSKGRRQPLSKLPRHHPLVLQECVSDDETSEQLTPEEEAEETEAWAKPLSQLWQNRPPNFEAEKEFNETMAQQAPHCAVCMIFQTYHQVEFGGFNQNCGNASDLAPQKQRTKPLIPEMCFTSTGCSTDINLSTPYLEEDGTSILVSCKKCSVRVHASCYGVPPAKASEDWMCSRCSANALEEDCCLCSLRGGALQRANDDRWVHVSCAVAILEARFVNIAERSPVDVSKIPLPRFKLKCIFCKKRRKRTAGCCVQCSHGRCPTAFHVSCAQAAGVMMQPDDWPFVVFITCFRHKIPNLERAKGALQSITAGQKVISKHKNGRFYQCEVVRLTTETFYEVNFDDGSFSDNLYPEDIVSQDCLQFGPPAEGEVVQVRWTDGQVYGAKFVASHPIQMYQVEFEDGSQLVVKRDDVYTLDEELPKRVKSRLSVASDMCFNEIFTEKEVKQEKKRQRVINSRYREDYIEPALYRAIME

Assays:
[1] = system: cells depleted of KDM4A (shA10); test: Rapamycin sensitivity of KDM4A-depleted (shA10) cells transfected with wild-type or mutant KDM4A; format: cell-based; details: shA10 depletion background
Procedure: Cells were depleted of KDM4A (shA10) and transfected with wild-type (WT) or mutant KDM4A. […] This differed from WT expression in the depletion background, which was less sensitive. […]
The effect of KMD4A mutations on drug sensitivity was examined by depleting cells of KDM4A (shA10) and then transfecting with wild-type or mutant KDM4A. The sensitivity of the cells to rapamycin was then determined. […] This differed from WT expression in the depletion background, which was less sensitive.

HEK 293T cells = test: Monitored cell proliferation assay (xCELLigence growth curves, doubling time); format: cell-based, human
Procedure: Seventy two hours post transfection 1×10^4 HEK 293T cells were seeded per well of a 96 well plate, and then treated after 24h. Cell proliferation was monitored with an xCELLigence system (Roche) (Vistejnova et al., 2009).

H3K36me3 = test: H3K36 demethylase activity of KDM4A variants in transfected cells (immunofluorescence); format: cell-based; design: key: + indicates active; − indicates inactive; +/− indicates partial acitivty; details: KDM4A mutations
H3K9me3 = test: H3K9 demethylase activity of KDM4 variants in transfected cells; format: cell-based; design: key: + indicates active; − indicates inactive; +/− indicates partial acitivty; details: KDM4A mutations

Row | Molecule | sensitivity of cells to rapamycin [1] | rescue of increased sensitivity to AZD8055 due to KDM4A depletion (doubling time 5h-35h) (HEK 293T cells; shRNA KDM4A plus non targetable GFP-KDM4A constructs) | rescue of increased sensitivity to Rapamycin of KDM4A depleted cells (doubling time 5h-35h) (HEK 293T cells; shRNA KDM4A plus shRNA-resistant GFP-KDM4A constructs) | H3k36 Demethylase Activity (H3K36me3) | H3k9 Demethylase Activity (H3K9me3)
1 | B1 | reduced the sensitivity of the cells | rescues | rescues |  | 
2 | B2 | did not reduce drug sensitivity |  |  |  | 
3 | B3 | equally as sensitive as KDM4A/JMJD2A depletion |  |  | + | +
